We go through 27 molecules from PMC10786891, “Massively parallel profiling of RNA-targeting CRISPR-Cas13d”.

T1: EsCas13d, nuclease-dead (Eubacterium siraeum, UniProt B0MS50, R295A;H300A;R849A;H854A)
T1 sequence: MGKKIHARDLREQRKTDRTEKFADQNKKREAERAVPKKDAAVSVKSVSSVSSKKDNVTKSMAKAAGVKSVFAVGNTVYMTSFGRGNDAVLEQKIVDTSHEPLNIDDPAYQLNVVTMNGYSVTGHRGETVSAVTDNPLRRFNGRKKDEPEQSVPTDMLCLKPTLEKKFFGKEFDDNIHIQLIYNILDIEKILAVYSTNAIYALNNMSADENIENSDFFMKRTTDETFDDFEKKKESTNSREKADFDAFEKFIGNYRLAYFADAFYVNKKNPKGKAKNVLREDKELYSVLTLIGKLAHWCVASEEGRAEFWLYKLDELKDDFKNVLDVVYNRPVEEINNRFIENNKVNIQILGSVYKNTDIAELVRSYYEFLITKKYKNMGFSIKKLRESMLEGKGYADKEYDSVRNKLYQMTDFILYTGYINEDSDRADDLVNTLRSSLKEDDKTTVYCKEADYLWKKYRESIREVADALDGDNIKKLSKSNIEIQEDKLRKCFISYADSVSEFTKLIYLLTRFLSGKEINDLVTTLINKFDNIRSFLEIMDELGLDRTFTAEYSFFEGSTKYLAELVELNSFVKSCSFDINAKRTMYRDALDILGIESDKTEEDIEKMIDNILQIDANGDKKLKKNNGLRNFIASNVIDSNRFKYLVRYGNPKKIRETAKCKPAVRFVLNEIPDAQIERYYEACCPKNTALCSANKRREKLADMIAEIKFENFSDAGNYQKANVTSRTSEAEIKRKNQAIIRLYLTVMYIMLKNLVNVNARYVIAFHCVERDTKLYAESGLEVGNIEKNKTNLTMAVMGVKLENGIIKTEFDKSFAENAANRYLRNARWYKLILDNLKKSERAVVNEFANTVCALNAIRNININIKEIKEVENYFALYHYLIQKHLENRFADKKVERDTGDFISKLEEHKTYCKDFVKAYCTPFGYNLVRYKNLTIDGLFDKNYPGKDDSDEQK

B1: target 1 insU 3' of 20,insG 3' of 6 (mixed)
RNA 1: CACCCGUGCAAAAAUGCAGGGGUCUAAAACUGAGCGGAUAACCUCUCUAUGG
RNA 2: GGGAAUGGAUCCACAUCUACGAAUUCGUACCAUUAGAGAGGUUAUCCGGCUCACCGAGAUCGGAAGAGCACACGU
B2: target 1 del3,del14 (mixed)
RNA 1: CACCCGUGCAAAAAUGCAGGGGUCUAAAACUGAGCGGAUAACCUCUCUAUGG
RNA 2: GGGAAUGGAUCCACAUCUACGAAUUCGUACCAUAGAGGGUUAUCCGCCACCGAGAUCGGAAGAGCACACGU
B3: target 1 insU 3' of 4 (mixed)
RNA 1: CACCCGUGCAAAAAUGCAGGGGUCUAAAACUGAGCGGAUAACCUCUCUAUGG
RNA 2: GGGAAUGGAUCCACAUCUACGAAUUCGUACCAUAGAGAGGUUAUCCGCUUCACCGAGAUCGGAAGAGCACACGU
B4: target 1 insU 3' of 14,insG 3' of 11 (mixed)
RNA 1: CACCCGUGCAAAAAUGCAGGGGUCUAAAACUGAGCGGAUAACCUCUCUAUGG
RNA 2: GGGAAUGGAUCCACAUCUACGAAUUCGUACCAUAGAGAUGGUGUAUCCGCUCACCGAGAUCGGAAGAGCACACGU
B5: target 1 G15A,A16C (mixed)
RNA 1: CACCCGUGCAAAAAUGCAGGGGUCUAAAACUGAGCGGAUAACCUCUCUAUGG
RNA 2: GGGAAUGGAUCCACAUCUACGAAUUCGUACCAUAGCAAGGUUAUCCGCUCACCGAGAUCGGAAGAGCACACGU
B6: target 1 insC 3' of 19,insC 3' of 9 (mixed)
RNA 1: CACCCGUGCAAAAAUGCAGGGGUCUAAAACUGAGCGGAUAACCUCUCUAUGG
RNA 2: GGGAAUGGAUCCACAUCUACGAAUUCGUACCAUCAGAGAGGUUACUCCGCUCACCGAGAUCGGAAGAGCACACGU
B7: target 1 insG 3' of 11,insG 3' of 2 (mixed)
RNA 1: CACCCGUGCAAAAAUGCAGGGGUCUAAAACUGAGCGGAUAACCUCUCUAUGG
RNA 2: GGGAAUGGAUCCACAUCUACGAAUUCGUACCAUAGAGAGGUGUAUCCGCUCGACCGAGAUCGGAAGAGCACACGU
B8: target 1 insU 3' of 22,insC 3' of 5 (mixed)
RNA 1: CACCCGUGCAAAAAUGCAGGGGUCUAAAACUGAGCGGAUAACCUCUCUAUGG
RNA 2: GGGAAUGGAUCCACAUCUACGAAUUCGUACUCAUAGAGAGGUUAUCCGCCUCACCGAGAUCGGAAGAGCACACGU
B9: target 1 insG 3' of 18,insG 3' of 9 (mixed)
RNA 1: CACCCGUGCAAAAAUGCAGGGGUCUAAAACUGAGCGGAUAACCUCUCUAUGG
RNA 2: GGGAAUGGAUCCACAUCUACGAAUUCGUACCAUAGGAGAGGUUAGUCCGCUCACCGAGAUCGGAAGAGCACACGU
B10: target 1 C2A,G5C (mixed)
RNA 1: CACCCGUGCAAAAAUGCAGGGGUCUAAAACUGAGCGGAUAACCUCUCUAUGG
RNA 2: GGGAAUGGAUCCACAUCUACGAAUUCGUACCAUAGAGAGGUUAUCCCCUAACCGAGAUCGGAAGAGCACACGU
B11: target 1 C6A,C7U (mixed)
RNA 1: CACCCGUGCAAAAAUGCAGGGGUCUAAAACUGAGCGGAUAACCUCUCUAUGG
RNA 2: GGGAAUGGAUCCACAUCUACGAAUUCGUACCAUAGAGAGGUUAUUAGCUCACCGAGAUCGGAAGAGCACACGU
B12: target 1 U8A,G17U (mixed)
RNA 1: CACCCGUGCAAAAAUGCAGGGGUCUAAAACUGAGCGGAUAACCUCUCUAUGG
RNA 2: GGGAAUGGAUCCACAUCUACGAAUUCGUACCAUAUAGAGGUUAACCGCUCACCGAGAUCGGAAGAGCACACGU
B13: target 1 insU 3' of 21,insG 3' of 10 (mixed)
RNA 1: CACCCGUGCAAAAAUGCAGGGGUCUAAAACUGAGCGGAUAACCUCUCUAUGG
RNA 2: GGGAAUGGAUCCACAUCUACGAAUUCGUACCUAUAGAGAGGUUGAUCCGCUCACCGAGAUCGGAAGAGCACACGU
B14: target 1 C7G,G12C (mixed)
RNA 1: CACCCGUGCAAAAAUGCAGGGGUCUAAAACUGAGCGGAUAACCUCUCUAUGG
RNA 2: GGGAAUGGAUCCACAUCUACGAAUUCGUACCAUAGAGAGCUUAUGCGCUCACCGAGAUCGGAAGAGCACACGU
B15: target 1 U8A,A16G (mixed)
RNA 1: CACCCGUGCAAAAAUGCAGGGGUCUAAAACUGAGCGGAUAACCUCUCUAUGG
RNA 2: GGGAAUGGAUCCACAUCUACGAAUUCGUACCAUAGGGAGGUUAACCGCUCACCGAGAUCGGAAGAGCACACGU
B16: target 1 C2A,A18G (mixed)
RNA 1: CACCCGUGCAAAAAUGCAGGGGUCUAAAACUGAGCGGAUAACCUCUCUAUGG
RNA 2: GGGAAUGGAUCCACAUCUACGAAUUCGUACCAUGGAGAGGUUAUCCGCUAACCGAGAUCGGAAGAGCACACGU
B17: target 1 C6U,U11G (mixed)
RNA 1: CACCCGUGCAAAAAUGCAGGGGUCUAAAACUGAGCGGAUAACCUCUCUAUGG
RNA 2: GGGAAUGGAUCCACAUCUACGAAUUCGUACCAUAGAGAGGGUAUCUGCUCACCGAGAUCGGAAGAGCACACGU
B18: target 1 U10C,G12U (mixed)
RNA 1: CACCCGUGCAAAAAUGCAGGGGUCUAAAACUGAGCGGAUAACCUCUCUAUGG
RNA 2: GGGAAUGGAUCCACAUCUACGAAUUCGUACCAUAGAGAGUUCAUCCGCUCACCGAGAUCGGAAGAGCACACGU
B19: target 1 insG 3' of 21,insU 3' of 18 (mixed)
RNA 1: CACCCGUGCAAAAAUGCAGGGGUCUAAAACUGAGCGGAUAACCUCUCUAUGG
RNA 2: GGGAAUGGAUCCACAUCUACGAAUUCGUACCGAUAUGAGAGGUUAUCCGCUCACCGAGAUCGGAAGAGCACACGU
B20: target 1 insG 3' of 11,insA 3' of 6 (mixed)
RNA 1: CACCCGUGCAAAAAUGCAGGGGUCUAAAACUGAGCGGAUAACCUCUCUAUGG
RNA 2: GGGAAUGGAUCCACAUCUACGAAUUCGUACCAUAGAGAGGUGUAUCCAGCUCACCGAGAUCGGAAGAGCACACGU
B21: target 1 insC 3' of 22,insA 3' of 19 (mixed)
RNA 1: CACCCGUGCAAAAAUGCAGGGGUCUAAAACUGAGCGGAUAACCUCUCUAUGG
RNA 2: GGGAAUGGAUCCACAUCUACGAAUUCGUACCCAUAAGAGAGGUUAUCCGCUCACCGAGAUCGGAAGAGCACACGU
B22: target 1 U10A,C21A (mixed)
RNA 1: CACCCGUGCAAAAAUGCAGGGGUCUAAAACUGAGCGGAUAACCUCUCUAUGG
RNA 2: GGGAAUGGAUCCACAUCUACGAAUUCGUACAAUAGAGAGGUAAUCCGCUCACCGAGAUCGGAAGAGCACACGU
B23: target 1 insA 3' of 7,insG 3' of 4 (mixed)
RNA 1: CACCCGUGCAAAAAUGCAGGGGUCUAAAACUGAGCGGAUAACCUCUCUAUGG
RNA 2: GGGAAUGGAUCCACAUCUACGAAUUCGUACCAUAGAGAGGUUAUCACGCGUCACCGAGAUCGGAAGAGCACACGU
B24: target 1 insC 3' of 22,insG 3' of 8 (mixed)
RNA 1: CACCCGUGCAAAAAUGCAGGGGUCUAAAACUGAGCGGAUAACCUCUCUAUGG
RNA 2: GGGAAUGGAUCCACAUCUACGAAUUCGUACCCAUAGAGAGGUUAUGCCGCUCACCGAGAUCGGAAGAGCACACGU
B25: target 1 insA 3' of 10,insC 3' of 3 (mixed)
RNA 1: CACCCGUGCAAAAAUGCAGGGGUCUAAAACUGAGCGGAUAACCUCUCUAUGG
RNA 2: GGGAAUGGAUCCACAUCUACGAAUUCGUACCAUAGAGAGGUUAAUCCGCUCCACCGAGAUCGGAAGAGCACACGU
B26: target 1 G12A,A20U (mixed)
RNA 1: CACCCGUGCAAAAAUGCAGGGGUCUAAAACUGAGCGGAUAACCUCUCUAUGG
RNA 2: GGGAAUGGAUCCACAUCUACGAAUUCGUACCUUAGAGAGAUUAUCCGCUCACCGAGAUCGGAAGAGCACACGU
B27: target 1 A9U,G15A (mixed)
RNA 1: CACCCGUGCAAAAAUGCAGGGGUCUAAAACUGAGCGGAUAACCUCUCUAUGG
RNA 2: GGGAAUGGAUCCACAUCUACGAAUUCGUACCAUAGAAAGGUUUUCCGCUCACCGAGAUCGGAAGAGCACACGU

This series addresses T1, EsCas13d, nuclease-dead. Put plainly: crRNA (strand 1, pre-loaded); Mg2+; 40 mM Tris-HCl pH 7.5, 150 mM NaCl, 6 mM MgCl2, 1 mM DTT, 0.1% Tween-20, 0.2 mg/ml BSA; 25 C; 10 min per concentration, then washed. To be noted: tags: His6-TwinStrep-SUMO cleaved; N-terminal SNAP kept (SNAP-Surface 488); label: 3' end held by stalled T7 RNA polymerase.
On to B1, for which the dissociation constant Kd (as a rule, the concentration at which binding is half-saturated) amounted to 16.3 ± 0.9 nM.
The molecule B2 gave an equilibrium dissociation constant (Kd) of 44 ± 4 nM.
On to B3, for which the Kd amounted to 8.7 ± 0.7 nM.
With B4 the figure was 80 ± 40 nM; with B5, 30.5 ± 2.7 nM.
In the case of B6, binding was put at a Kd of 56 ± 11 nM.
As to B7, the equilibrium dissociation constant (Kd) came out at 57 ± 8 nM.
In turn, B8 returned a Kd of 100 ± 50 nM.
In turn, B9 displayed a Kd of 49 ± 8 nM.
In turn, B10 had a dissociation constant (Kd) of 6.52 ± 0.32 nM.
Take B11: the affinity, expressed as Kd, was 7.1 ± 0.5 nM.
In the case of B12, the Kd was found to be 61 ± 8 nM. This Kd is about 8.6-fold higher than that of the molecule before.
Turning to B13, the affinity, expressed as Kd, was 82 ± 23 nM.
B14 returned a Kd of 23.6 ± 1.4 nM.
With B15 the figure was 64 ± 6 nM; with B16, 64 ± 18 nM; with B17, 16.2 ± 0.9 nM.
In turn, B18 gave a Kd of 24 ± 4 nM.
The molecule B19 displayed a Kd of 77 ± 22 nM.
As for B20, the equilibrium dissociation constant (Kd) amounted to 94 ± 29 nM.
B21 returned a dissociation constant (Kd) of 30 ± 9 nM. Compared with the last molecule, the Kd is about 3.1-fold lower.
B22 had a Kd of 33 ± 5 nM.
B23 returned a Kd of 5.33 ± 0.17 nM.
The molecule B24 gave a Kd of 33 ± 4 nM.
Molecule B25 displayed a Kd of 10.3 ± 0.6 nM.
The result for B26 reads 15.7 ± 0.9 nM.
B27 returned a Kd of 19.1 ± 1.4 nM.
